According to patent US6506592B1, “Hyperthermophilic alpha-glucosidase gene and its use” (Board of Regents of the University of Nebraska, priority 1998, dated 2003):

Assays:
[1] = glucose release by transgenic plant protein extracts at 80° C.; type: biochemical; conditions: transgenic plant protein extract, incubation at 80° C.
Protocol: (§1) FIGS. 7A and B show the release of glucose by transgenic glycosyl hydrolases from exogenous and endogenous plant carbohydrates. FIG. 7A. Glucose released by the alpha-glucosidase using an exogenous soluble starch as substrate. A 5% (w/v) solution of soluble starch was incubated at 80° C. with no additions (closed circles), with a protein extract from a plant transformed with an empty vector (open circles) and with a protein extract from transformant MI52E containing the alpha-glucosidase (closed squares). FIG. 7B. Glucose released by glycosyl hydrolases using an endogenous polysaccharide-enriched plant extract as substrate. Protein extracts were: beta-glycosidase (closed squares), alpha-glucosidase (closed circles), and empty vector transformed plant (labeled). Glucose levels were determined using the glucose oxidase assay.
Conversion of plant polysaccharide into free sugar is conventionally done by addition of purified or semipurified hydrolytic enzymes. […] Protein extracts of the alpha-glucosidase transgenic plant MI52E, were prepared and combined with soluble starch. Plant leaves were harvested in the late afternoon, ground in liquid nitrogen with a mortar and pestle in 100 mM phosphate buffer at pH 7.0. […] No significant glucose was detected in reactions containing protein extracts from plants transformed with empty vector and added starch or in reactions containing starch alone. […]

[2] = recalcitrance to denaturation in denaturing SDS-PAGE; type: physicochemical; conditions: boiling in 2% (wt/vol) SDS for 10 minutes
Source text: (§2) Purification of the recombinant enzyme to apparent homogeneity employed heat fractionation of clarified cell sonicates followed by anion-exchange fast protein liquid chromatography and gel filtration fast protein liquid chromatography as described by Rolfsmeier, et al., 1995. […] Complete denaturation of the recombinant alpha-glucosidase required additional treatment with 6 M guanidine hydrochloride, resulting in exclusive formation of the 80-kDa monomer. Assays for alpha-glucosidase activity with p-nitrophenyl-α-D-glucopyranoside were performed as described by Rolfsmeier, et al., 1995. In enzymatic assays for hydrolysis of maltose and glycogen, release of glucose was monitored with a glucose oxidase assay kit (Sigma) as described by Rolfsmeier, et al., 1995.

[3] = maltose hydrolysis, glucose oxidase assay; type: biochemical; conditions: FIG. 4A
Source text: as §2
(Rolfsmeier et al., 1995).

[4] = conversion of added starch to glucose by concentrated malA tobacco extract at 85° C.; type: biochemical; conditions: 5% starch, extract pre-treated one hour at 85° C., 16 hours
Protocol: Precipitation of tobacco leaf proteins with (NH4)2 SO4 achieved a 3-fold concentration of the recombinant alpha-glucosidase with a recovery of 100%. Endogenous plant glycolytic activities were eliminated prior to malA assays by heat inactivation (1 hr, […]). Background due to endogenous glucose was removed by dialysis. […] In an attempt to remove this background, concentrated empty vector control extract was pre-incubated for one hour at 85° C., clarified by microcentrifugation and then incubated for 0 or 14 hour at 85° C. in the presence or absence of 5% starch. Without preincubation, background in the presence of starch was very high, at both 0 and at 14 hours, corresponding to 17.8 to 19.2 micrograms of glucose per 100 microliters of assay. Background in the absence of starch was much lower, but apparently more time-dependent, rising from 0.9 to 1.6 micrograms of glucose per 100 microliters in 14 hours (FIG. 7). When the extract was pre-heated before assay, the background in the absence of starch was unchanged, but the background in the presence of starch was then at the same level as the background in the absence of starch without pre-heating (FIG. 7). […]
For measurements of glycosyl hydrolase activities on glucose polymers. […] Aliquots of 100 ul were removed at four hour intervals and glucose was detected with a glucose oxidase glucose detection kit from Sigma.

[5] = glucose release from endogenous polysaccharide-enriched tobacco extract at 80° C.; type: biochemical, Nicotiana tabacum; conditions: transgenic protein extract plus polysaccharide-enriched tobacco extract, terminated after 160 hr
Protocol: as §1
To obtain tobacco leaf extract for assays, approximately […] of tobacco (five 1.1 cm diameter disk punches) leaves were harvested, rinsed with distilled water, midribs removed and weighed. Leaves were then ground to a powder in liquid nitrogen and ground again with a sterilized pestle. […] Glucose released by glycosyl hydrolase action on endogenous plant carbohydrates was measured using the Glucose Oxidase Assay (Sigma).
Levels of liberated glucose were determined as a function of incubation time at 80° C. […]

[6] = glycogen hydrolysis, glucose oxidase assay; type: biochemical
Source text: as §2
Alpha-glucosidases of mammalian origin are generally distinguished from those of higher plants and eubacteria by their affinities for glycogen as a substrate.

[7] = alpha-glucosidase activity in tobacco leaf extract (alpha-PNPG hydrolysis); type: biochemical
Protocol: (§3) To obtain tobacco leaf extract for assays, approximately […] of tobacco (five 1.1 cm diameter disk punches) leaves were harvested, rinsed with distilled water, midribs removed and weighed. Leaves were then ground to a powder in liquid nitrogen and ground again with a sterilized pestle. The extracts were then clarified by centrifugation at 14,000 rpm for 10 minutes at room temperature. The resulting supernatant was heat treated for 1 hour at 85° C. and clarified by spinning at 14,000 rpm for 10 minutes at room temperature. The supernatant was collected and assayed for alpha-glucosidase or beta-glycosidase enzyme activity by measuring the hydrolysis of p-nitrophenyl-alpha-glucopyranoside (alpha-PNPG) and p-nitrophenyl-beta-D-glucopyranoside (beta-PNPG), respectively, as previously described (Rolfsmeier, et al., 1998; Haseltine, et al., 1999(a)). Plant tissue extracts for studies on hydrolysis of added defined substrates were prepared using 100 g of tobacco leaves were harvested and grinded to a fine powder in liquid nitrogen. The leaf powder was resuspended in 500 ml of 10 mM tris-Cl pH7.0 to which 10 mM beta-mercaptoethanol has been added. The suspension was then homogenized in a Waring blender. The resulting extract was centrifuged at 5,000 rpm for 30 minutes at 4° C. and the supernatant was further clarified by filtering through three layers of cheesecloth. Plant extracts used for studies on hydrolysis of endogenous polysaccharides as sources of transgenic proteins were prepared using one leaf (medium to large) for each plant which was harvested and ground to a fine powder in liquid nitrogen. The ground leaves were resuspended in 2 volumes of 100 mM sodium phosphate pH 7.0 with 10 mM beta-mercaptoethanol and the tissue was further homogenized in a Waring blender. The resulting extracts were then incubated at 80° C. to activate the recombinant alpha-glucosidase and beta-glycosidase for 48 hours. After incubation, the extracts were clarified by centrifugation by 12,500 rpm for 10 minutes 4° C. Glucose released by glycosyl hydrolase action on endogenous plant carbohydrates was measured using the Glucose Oxidase Assay (Sigma).
Glucosyl hydrolase levels were determined in primary plant transformants using clarified leaf extracts incubated at 80° C. Plants transformed with empty vector lacked detectable thermostable glycosyl hydrolase activity. Activity was measured on fully expanded leaves of plants that had grown in soil for 76 to 164 days. Levels of the beta-glycosidase in young primary transformants was determined in twenty-three independent events. Enzyme levels in ten representative isolates ranged over 12-fold with maximum values of 29 μmoles PNP/min/mg of protein (FIG. 5B).
It has been determined that glycosyl hydrolases retain significant activity in fully mature and preserved leaf tissue. Glycosyl hydrolase specific activities in plant tissues were compared, after freezing or drying, to levels in fresh tissue samples (Table 2). Significant beta-glycosidase activity was retained in leaves harvested and held at −80° C. for 5 days.

[8] = hydrolysis of p-nitrophenyl-α-D-glucopyranoside by purified recombinant enzyme; type: biochemical; conditions: 85° C., purified recombinant enzyme from E. coli
Protocol: The production of the recombinant enzymes of this invention were conducted by over expression in E. coli. Assays for alpha-glucosidase activity were performed with para-nitrophenyl-alpha-D-glucopyranoside or methylumbelliferyl-alpha-D-glucoside. Assays for hydrolysis of substrate and detection of glucose were monitored by means known in the art. Purification of the recombinant enzyme to apparent homogeneity employed heat fractionation of clarified cell sonicates followed by anion-exchange fast protein liquid chromatography and gel filtration fast protein liquid chromatography as described in Rolfsmeier, et al.,1995.
Purification of the recombinant enzyme to apparent homogeneity employed heat fractionation of clarified cell sonicates followed by anion-exchange fast protein liquid chromatography and gel filtration fast protein liquid chromatography as described by Rolfsmeier, et al., 1995. […] Complete denaturation of the recombinant alpha-glucosidase required additional treatment with 6 M guanidine hydrochloride, resulting in exclusive formation of the 80-kDa monomer. Assays for alpha-glucosidase activity with p-nitrophenyl-α-D-glucopyranoside were performed as described by Rolfsmeier, et al., 1995. In enzymatic assays for hydrolysis of maltose and glycogen, release of glucose was monitored with a glucose oxidase assay kit (Sigma) as described by Rolfsmeier, et al., 1995. […]

[9] = beta-glycosidase activity in tobacco leaf extract (beta-PNPG hydrolysis); type: biochemical
Protocol: as §3, with “Plant extracts used for studies on hydrolysis of endogenous polysaccharides as sources of transgenic proteins were prepared using one leaf (medium to large) for each plant which was harvested and ground to a fine powder in liquid nitrogen. The ground leaves were resuspended in 2 volumes of 100 mM sodium phosphate pH 7.0 with 10 mM beta-mercaptoethanol and the tissue was further homogenized in a Waring blender. The resulting extracts were then incubated at 80° C. to activate the recombinant alpha-glucosidase and beta-glycosidase for 48 hours. After incubation, the extracts were clarified by centrifugation by 12,500 rpm for 10 minutes 4° C.” left out
Glucosyl hydrolase levels were determined in primary plant transformants using clarified leaf extracts incubated at 80° C. […] Activity was measured on fully expanded leaves of plants that had grown in soil for 76 to 164 days. Levels of the beta-glycosidase in young primary transformants was determined in twenty-three independent events. […]
It has been determined that glycosyl hydrolases retain significant activity in fully mature and preserved leaf tissue. […]

[10] = Dried transgenic tobacco leaf tissue
[11] = Fresh transgenic tobacco leaf tissue

Row | Molecule | rate of appearance of glucose [1] [µg/h] | enzyme that failed to enter the separating gel, migrating in the stacking gel [2] | pH optimum for maltose hydrolysis [3] | net rate of glucose formation (conversion of added starch to glucose) [4] [micrograms per hour] | initial lag before levels of glucose began to increase [5] [h] | Km for glycogen ([6]; 85° C.) [mg/mL] | Vmax for glycogen ([6]; 85° C.) | pH optimum for glycogen hydrolysis ([6]; FIG. 4B) | Alpha-glucosidase specific activity in plant tissue [7, 10] [μmoles PNP/hr/mg] | Alpha-glucosidase specific activity in plant tissue [7, 11] [μmoles PNP/hr/mg] | Alpha-glucosidase specific activity in plant tissue ([7]; Frozen transgenic tobacco leaf tissue) [μmoles PNP/hr/mg] | activity more stable when dried, as compared to fresh tissues ([7]; dried vs fresh tobacco tissue) [times] | activity more stable when frozen, as compared to fresh tissues ([7]; frozen vs fresh tobacco tissue) | Vmax for p-nitro-phenyl-α-D-glucopyranoside [8] | Km ([8]; read-out: Km for p-nitro-phenyl-α-D-glucopyranoside) [µM] | Beta-glycosidase specific activity in plant tissue [9, 10] [μmoles PNP/min/mg] | Beta-glycosidase specific activity in plant tissue [9, 11] [μmoles PNP/min/mg] | Beta-glycosidase specific activity in plant tissue ([9]; Frozen transgenic tobacco leaf tissue (−80° C. for 5 days)) [μmoles PNP/min/mg]
1 | recombinant alpha-glucosidase: thermostable alpha-glucosidase of Sulfolobus solfataricus encoded by malA (SEQ ID NO:2), expressed recombinantly in E. coli or transgenic tobacco (protein, listed as Sulfolobus solfataricus) MQTIKIYENKGVYKVVIGEPFPPIEFPLEQKISSNKSLSELGLTIVQQGNKVIVEKSLDLKEHIIGLGEKAFELDRKRKRYVMYNVDAGAYKKYQDPLYVSIPLFISVKDGVATGYFFNSASKVIFDVGLEEYDKVIVTIPEDSVEFYVIEGPRIEDVLEKYTELTGKPFLPPMWAFGYMISRYSYYPQDKVVELVDIMQKEGFRVAGVFLDIHYMDSYKLFTWHPYRFPEPKKLIDELHKRNVKLITIVDHGIRVDQNYSPFLSGMGKFCEIESGELFVGKMWPGTTVYPDFFREDTREWWAGLISEWLSQGVDGIWLDMNEPTDFSRAIEIRDVLSSLPVQFRDDRLVTTFPDNVVHYLRGKRVKHEKVRNAYPLYEAMATFKGFRTSHRNEIFILSRAGYAGIQRYAFIWTGDNTPSWDDLKLQLQLVLGLSISGVPFVGCDIGGFQGRNFAEIDNSMDLLVKYYALALFFPFYRSHKATDGIDTEPVFLPDYYKEKVKEIVELRYKFLPYIYSLALEASEKGHPVIRPLFYEFQDDDDMYRIEDEYMVGKYLLYAPIVSKEESRLVTLPRGKWYNYWNGEIINGKSVVKSTHELPIYLREGSIIPLEGDELIVYGETSFKRYDNAEITSSSNEIKFSREIYVSKLTITSEKPVSKIIVDDSKEIQVEKTMQNTYVAKINQKIRGKINLE | 0.11 | 45 % of the total observed protein | 4.5 | 0.42 | 28 | 64.9 | 1.0 μmol of glucose/min | 5.5 | 27 | 1.6 | 3.6 | 17 | over two | 3.08 μmol of p-nitrophenol/min | 2160 | – | – | –
2 | Beta-glycosidase: S. solfataricus beta-glycosidase (lacS) converting beta-linked disaccharides into glucose, expressed in transgenic tobacco (protein) MYSFPNSFRFGWSQAGFQSEMGTPGSEDPNTDWYKWVHDPENMAAGLVSGDLPENGPGYWGNYKTFHDNAQKMGLKIARLNVEWSRIFPNPLPRPQNFDESKQDVTEVEINENELKRLDEYANKDALNHYREIFKDLKSRGLYFILNMYHWPLPLWLHDPIRVRRGDFTGPSGWLSTRTVYEFARFSAYIAWKFDDLVDEYSTMNEPNVVGGLGYVGVKSGFPPGYLSFELSRRAMYNIIQAHARAYDGIKSVSKKPVGIIYANSSFQPLTDKDMEAVEMAENDNRWWFFDAIIRGEITRGNEKIVRDDLKGRLDWIGVNYYTRTVVKRTEKGYVSLGGYGHGCERNSVSLAGLPTSDFGWEFFPEGLYDVLTKYWNRYHLYMYVTENGIADDADYQRPYYLVSHVYQVHRAINSGADVRGYLHWSLADNYEWASGFSMRFGLLKVDYNTKRLYWRPSALVYREIATNGAITDEIEHLNSVPPVKPLRH | 0.15 | – | – | – | 28 | – | – | – | – | – | – | – | – | – | – | 31 | 62 | 67
